Reference: publication PMC7755903 (Nature Communications, 2020)
Changes are numbered by the printed parent chain. In names and notes the source's numbering stands. Several values for one entry are separate records, joined by “and”; a condition that tells them apart may be missing. Equal values may be shown once.

B1: E104.v2 IgG1 hinge variant G1 + G (antibody, V domains shown)
VH: EVQLVESGPGLVKPSETLSLTCTVSRFSLIGYAITWIRQPPGKGLEWIGGISSAATTFYSSWAKSRVTISRDTSKNQVSLKLSSVTAADTAVYYCARDPRGYGAALDRLDLWGQGTLVTVSS
VL: DIQMTQSPSSLSASVGDRVTITCQSIKSVYNNRLGWYQQKPGKAPKLLIYETSILTSGVPSRFSGSGSGTDFTLTISSLQPEDFATYYCAGGFDRSGDTTFGQGTKVEIK
notes: variable domain of the heavy chain as in m6 (PDB 6VVU, Fab heavy chain) with V71R and F78V (Kabat numbering); human IgG1 heavy chain constant region before the upper hinge (CH1); upper hinge of the variant; human IgG1 heavy chain constant region after the upper hinge (core hinge from C226, CH2, CH3); as the light chain of m6 (PDB 6VVU, Fab light chain); IgG1 with an extended upper hinge; source: …
B2: E104.v2 IgG1 hinge variant G1 + GG (antibody, V domains shown)
VH: B1 VH
VL: B1 VL
notes: as for B1
B3: E104.v2 IgG1 hinge variant G1 + GGS (antibody, V domains shown)
VH: B1 VH
VL: B1 VL
notes: as for B1
B4: E104.v2 IgG1 hinge variant G1 + (GGS)3 (antibody, V domains shown)
VH: B1 VH
VL: B1 VL
notes: as for B1
B5: E104.v2 IgG1 hinge variant G1-H (antibody, V domains shown)
VH: B1 VH
VL: B1 VL
notes: variable domain of the heavy chain as in m6 (PDB 6VVU, Fab heavy chain) with V71R and F78V (Kabat numbering); human IgG1 heavy chain constant region before the upper hinge (CH1); upper hinge of the variant; human IgG1 heavy chain constant region after the upper hinge (core hinge from C226, CH2, CH3); as the light chain of m6 (PDB 6VVU, Fab light chain); IgG1 with a shortened upper hinge; source: …
B6: humanized E104.v1 IgG1 (antibody, V domains shown)
VH: B1 VH with R71V, V78F
VL: B1 VL
notes: humanized E104.v1 VH (rabbit E104 CDRs on the human VHIV consensus framework); Kabat numbering; human IgG1 heavy chain constant region, the CH1 domain up to the upper hinge; upper hinge of human IgG1, wild type; human IgG1 heavy chain constant region after the upper hinge (core and lower hinge, CH2, CH3); humanized E104 light chain (rabbit E104 CDRs on the human VLKI consensus framework); IgG1; …
B7: humanized E104.v2 IgG2 (antibody, V domains shown)
VH: B1 VH
VL: B1 VL
notes: humanized E104.v2 VH: as the VH of Sm2 (E104.v1, PDB 6VVU heavy chain) with V71R and F78V (Kabat numbering); human IgG2 heavy chain constant region, the CH1 domain up to the upper hinge; upper hinge of human IgG2; human IgG2 heavy chain constant region after the upper hinge (core and lower hinge, CH2, CH3); IgG2 isotype version of E104.v2; copies: 2 + 2
B8: humanized E104.v2 IgG4 (antibody, V domains shown)
VH: B1 VH
VL: B1 VL
notes: humanized E104.v2 VH: as the VH of Sm2 (E104.v1, PDB 6VVU heavy chain) with V71R and F78V (Kabat numbering); human IgG4 heavy chain constant region, the CH1 domain up to the upper hinge; upper hinge of human IgG4; human IgG4 heavy chain constant region after the upper hinge (core and lower hinge, CH2, CH3); IgG4 isotype version of E104.v2; copies: 2 + 2
B9: E104.v2 IgG1 hinge variant G1 + G (antibody, V domains shown)
VH: B1 VH
VL: B1 VL
notes: humanized E104.v2 VH: as the VH of Sm2 (E104.v1, PDB 6VVU heavy chain) with V71R and F78V (Kabat numbering); human IgG1 heavy chain constant region, the CH1 domain up to the upper hinge; human IgG1 heavy chain constant region after the upper hinge (core and lower hinge, CH2, CH3); IgG1 with extended upper hinge; copies: 2 + 2
B10: E104.v2 IgG1 hinge variant G1 + GG (antibody, V domains shown)
VH: B1 VH
VL: B1 VL
notes: as for B9
B11: E104.v2 IgG1 hinge variant G1 + GGS (antibody, V domains shown)
VH: B1 VH
VL: B1 VL
notes: as for B9
B12: E104.v2 IgG1 hinge variant G1 + (GGS)3 (antibody, V domains shown)
VH: B1 VH
VL: B1 VL
notes: as for B9
B13: E104.v2 IgG1 hinge variant G1-H (antibody, V domains shown)
VH: B1 VH
VL: B1 VL
notes: humanized E104.v2 VH: as the VH of Sm2 (E104.v1, PDB 6VVU heavy chain) with V71R and F78V (Kabat numbering); human IgG1 heavy chain constant region, the CH1 domain up to the upper hinge; human IgG1 heavy chain constant region after the upper hinge (core and lower hinge, CH2, CH3); IgG1 with shortened upper hinge; copies: 2 + 2
B14: E104.v2 IgG1 hinge variant G1-TH (antibody, V domains shown)
VH: B1 VH
VL: B1 VL
notes: as for B13
B15: E104.v2 IgG1 hinge variant G1-KTH (antibody, V domains shown)
VH: B1 VH
VL: B1 VL
notes: as for B13
B16: E104.v2 IgG1 hinge variant G1.G5 (antibody, V domains shown)
VH: B1 VH
VL: B1 VL
notes: humanized E104.v2 VH: as the VH of Sm2 (E104.v1, PDB 6VVU heavy chain) with V71R and F78V (Kabat numbering); human IgG1 heavy chain constant region, the CH1 domain up to the upper hinge; engineered upper hinge: DKTHT of the human IgG1 upper hinge replaced by five glycines; human IgG1 heavy chain constant region after the upper hinge (core and lower hinge, CH2, CH3); IgG1 with a flexible upper …
B17: humanized E104.v2 IgG1 (antibody, V domains shown)
VH: B1 VH
VL: B1 VL
notes: humanized E104.v2 VH: as the VH of Sm2 (E104.v1, PDB 6VVU heavy chain) with V71R and F78V (Kabat numbering); human IgG1 heavy chain constant region, the CH1 domain up to the upper hinge; upper hinge of human IgG1, wild type; human IgG1 heavy chain constant region after the upper hinge (core and lower hinge, CH2, CH3); v1 and v2 differ only in the heavy chain; IgG1; also called IgG1.v2; copies: 2 …

Experiments:
[1] = biological target: T1, human βI-tryptase monomer (Homo sapiens, UniProt Q15661); test: SPR; Biacore T200; E104 IgG variants captured on immobilised mouse anti-human IgG (Fc) antibody on CM5 chips; threefold dilutions of human βI-tryptase monomer injected at 30 µL/min, 25 °C; 1:1 Langmuir model; n = 2; conditions: both partners purified
T1 construct: mature human βI-tryptase, Ile31-Pro275 of Uniprot Q15661 (Ile16-Pro246 in chymotrypsinogen numbering); The monomer used in SPR and HDX-MS; also called monomeric βI-tryptase; monomeric β-tryptase
T1 sequence (Q15661 31-275): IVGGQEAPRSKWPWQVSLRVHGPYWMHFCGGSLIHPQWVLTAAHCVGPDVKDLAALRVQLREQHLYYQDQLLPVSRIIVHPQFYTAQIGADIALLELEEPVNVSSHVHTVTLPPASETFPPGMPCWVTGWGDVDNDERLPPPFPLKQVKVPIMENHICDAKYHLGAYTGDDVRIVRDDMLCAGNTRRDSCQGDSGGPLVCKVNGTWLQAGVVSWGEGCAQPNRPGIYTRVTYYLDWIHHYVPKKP

[2] = biological target: T2, human βI-tryptase monomer (Homo sapiens, UniProt Q15661); test: SPR; Biacore T200; antibody captured on a CM5 chip by immobilised mouse anti-human IgG (Fc); threefold dilutions of βI-tryptase monomer injected at 30 µL/min, 25 °C, 3-min association, 10-min dissociation; 1:1 Langmuir fit; n = 2; conditions: both partners purified
T2 construct: mature wild-type human βI-tryptase, Uniprot Q15661, Ile31-Pro275 (Ile16-Pro246 in chymotrypsinogen numbering); The SPR methods say only 'human βI-tryptase monomer'; The methods describe the monomeric form as the zymogen, which still carries the N-terminal His6 tag and enterokinase site before Ile16; also called monomeric βI-tryptase; β-tryptase; source: Trichoplusia ni cells (baculovirus, …)
T2 sequence (Q15661 31-275): as above

Binder	Kd [1] [nM]	Kd [2]
B1	0.5 ± 0.01	–
B2	0.4 ± 0.02	–
B3	0.5 ± 0.05	–
B4	0.5 ± 0.1	–
B5	0.6 ± 0.1	–
B6	–	0.543 nM and 0.521 nM
B7	–	0.537 nM and 0.672 nM
B8	–	0.745 nM and 0.689 nM
B9	–	0.538 nM and 0.521 nM
B10	–	0.448 nM and 0.422 nM
B11	–	0.435 nM and 0.502 nM
B12	–	0.626 nM and 0.41 nM
B13	–	0.68 nM and 0.494 nM
B14	–	0.56 nM and 0.471 nM
B15	–	0.522 nM and 0.401 nM
B16	–	0.643 nM and 0.493 nM
B17	–	0.6 nM
